Results taken from US12723255B2, “Herbicide tolerance genes and methods of use thereof” (priority 2014, dated 2026).

Columns and labels:
F1 hybrid maize plants = test: trait efficacy field trial, 2,4-D pressure screening, F1 hybrid; assay type: in vivo; conditions: crop injury percentage; for 4X 2,4-D CIPV4 / 4X 2,4-D CIPV8: 4 lb ae/acre at VE-V2, V4, V8; for 8X 2,4-D CIPV4 / 8X 2,4-D CIPV8: 8 lb ae/acre at VE-V2, V4, V8; for 16X 2,4-D CIPV4 / 16X 2,4-D CIPV8: 16 lb ae/acre at VE-V2, V4, V8
Procedure: Separate trait efficacy field trials for quizalofop-P and 2,4-D pressure screening were conducted at one location each with F1 hybrid transgenic plants produced by crossing an inbred plant containing maize event MON89034 with an R1 plant containing MON-HT1, MON-HT2, MON-HT8, MON-HT9, and MON-HT10 with and without operably linked CTP sequences. Transgenic F1 hybrid plants containing maize events NK603×MON89034 were used for comparison as a control.
Three herbicide treatments were used in the trait efficacy field trial for 2,4-D tolerance: (1) 2,4-D amine at 4 lb ac/acre (4×) plus 0.25% v/v NIS applied to VE-V2 followed by V4 followed by V8; (2) 2,4-D amine at 8 lb ac/acre (8×) plus 0.25% v/v NIS applied to VE-V2 followed by V4followed by V8 maize; or (3) 2,4-D amine at 16 lb ac/acre (16×) plus 0.25% v/v NIS applied to VE-V2 followed by V4 followed by V8. Plots were visually rated as above.
The injury rating for the control plants after all 2,4-D applications ranged from 80% to 96.25%. At the highest rate of 2,4-D (16×) applied through V8, the plants containing MON-HT1 or MON-HT2 operably linked to any of the three CTPs (A, B, or C) had better tolerance than plants containing MON-HT1 or MON-HT2 not operably linked to a CTP. Plants containing MON-HT1, MON-HT2, or MON-HT8 with or without an operably linked CTP had better tolerance to 2,4-D at all applications tested compared to plants containing either MON-HT9 or MON-HT10 with an operably linked ‘A’ CTP. Over the range of 2,4-D applications the relative ranking of tolerance was: plants containing MON-HT1 had better tolerance than plants containing MON-HT2 which were in turn better than plants containing MON-HT8. […] Error was calculated using LSD (0.05).

transgenic maize plants = test: trait efficacy field trials with homozygous inbred plants, CTP evaluation; assay type: in vivo; conditions: crop injury percentage
Source text: To evaluate different chloroplast targeting peptides (CTP), plant transformation vectors were constructed, each comprising a recombinant DNA molecule optimized for monocot expression and encoding MON-HTI (SEQ ID NO: 16), MON-HT2 (SEQ ID NO:20), and MON-HT8 (SEQ ID NO:39), MON-HT9 (SEQ ID NO:42), or MON-HT10 (SEQ ID NO:45). The vectors were created using the same combination of promoter, leader, intron, and 3′-UTR, but with one of three separate CTPs (A, B, or C) or without a CTP operably linked to the protein-coding sequence. The DNA constructs were used to transform immature maize (LH244) embryos using Agrobacterium tumifaciens and standard methods known in the art. Regenerated RO transgenic plantlets were grown in the green house. The R0 plants were selfed to generate R1 homozygous seed. The R0 plants were also used as the male to cross with inbred plants containing maize event MON89034 to generate segregating F1 hybrid seed for trait efficacy field trials.
Separate trait efficacy field trials for quizalofop-P and 2,4-D were conducted at two locations each with the homozygous inbred transgenic plants (R2 or R4 generation). In these field trials, one of two herbicide treatments was used: (1) quizalofop-P (Assure II) at 0.16 lb ai/acre (2×) plus 0.25% v/v non-ionic surfactant (NIS) applied at V4 growth stage followed by the same at V8 growth stage; or (2) 2,4-D amine at 2 lb ae/acre (2×) plus 0.25% v/v non-ionic surfactant (NIS) applied to V4 followed by V8. Injury ratings (crop injury percentage at V4 (CIPV4) or V8 (CIPV8)) were taken 10 to 14 days after the V4 and V8 applications. Error was calculated using LSD (0.05).

[1] = tested on: transgenic soybean plants; test: R0 soybean green house 2,4-D spray test; assay type: in vivo; conditions: single copy R0 soy events
Source text: Two engineered proteins were selected for analysis in transgenic soybean. DNA constructs were produced for expressing MON-HT1 (SEQ ID NO:14) and MON-HT2 (SEQ ID NO:18) with codon usage optimized for dicot expression using methods known to those skilled in the art. Enhancers, promoters, leaders, introns, CTPs, and 3′UTRs in various combinations were operably linked to the engineered proteins in these DNA constructs. The DNA constructs were used to transform soybean using Agrobacterium tumifaciens and standard methods known in the art. Regenerated R0 transgenic plantlets were grown in the green house. Approximately 9 weeks after transformation at the 1-2 trifoliate leaf stage, single copy R0 events were identified and sprayed with 2,4-D herbicide at a rate of 0.5× (0.375 lb ae/acre), 2× (1.5 lb ae/acre), or 4× (3.0 lb ae/acre). Approximately 2 weeks after herbicide application, the plants were rated for herbicide injury on a scale of 1 to 3, where 1=little to no injury (<20%), 2=moderate injury (20-50%) and 3=severe injury (>50%).

[2] = tested on: mRNA transcribed from the transgene cassette; test: Quantigene analysis of transgene mRNA expression in leaf samples; conditions: normalized to maize housekeeping genes, average of eight samples
Source text: Leaf samples were collected from the plants containing transgene cassettes encoding MON-HT1, MON-HT2, and MON-HT8 with and without CTP sequences to determine expression of the mRNA transcribed from the transgene cassette encoding the engineered proteins. Quantigene® analysis was done on the leaf sample extracts to determine mRNA expression of the transgene cassette. For these assays, the probe was to the common 3′-UTR sequence present in each expression cassette used to generate the transgenic plants. Relative expression was calculated by normalizing to maize housekeeping genes. A leaf sample was collected from each of eight plants for each construct configuration used to make the transgenic plants, and the reported relative mRNA expression data is an average of the eight samples with standard error.

[3] = CTP B, 0.16 lb ai/acre at V4, V8
[4] = CTP C, 0.16 lb ai/acre at V4, V8
[5] = no CTP, 0.16 lb ai/acre at V4, V8

B1: MON-HT1: engineered oxygenase protein, amino acid sequence SEQ ID NO:14 (protein)
chain: MHAALTPLTNKYRFIDVQPLTGVLGAEITGVDLREPLDDSTWNEILDAFHTYQVIYFPGQAITNEQHIAFSRRFGPVDPVPILKSIEGYPEVQMIRREANESSRFIGDDWHTDSTFLDAPPAAVVMRAIEVPEYGGDTGFLSMYSAWETLSPTMQATIEGLNVVHSATKVFGSLYQATNWRFSNTSVKVMDVDAGDRETVHPLVVTHPVTGRRALYCNQVYCQKIQGMTDAESKSLLQFLYEHATKFDFTCRVRWKKDQVLVWDNLCTMHRAVPDYAGKFRYLTRTTVAGDKPSR
F1 hybrid maize plants; CTP A
  4X 2,4-D CIPV4: 5
  4X 2,4-D CIPV8: 5
  8X 2,4-D CIPV4: 5
  8X 2,4-D CIPV8: 10
  16X 2,4-D CIPV4: 7.5
  16X 2,4-D CIPV8: 15
F1 hybrid maize plants; CTP B
  4X 2,4-D CIPV4: 5
  4X 2,4-D CIPV8: 5
  8X 2,4-D CIPV4: 5
  8X 2,4-D CIPV8: 10
  16X 2,4-D CIPV4: 10
  16X 2,4-D CIPV8: 15
F1 hybrid maize plants; CTP C
  4X 2,4-D CIPV4: 5
  4X 2,4-D CIPV8: 5
  8X 2,4-D CIPV4: 5
  8X 2,4-D CIPV8: 10
  16X 2,4-D CIPV4: 10
  16X 2,4-D CIPV8: 17.5
F1 hybrid maize plants; no CTP
  4X 2,4-D CIPV4: 5
  4X 2,4-D CIPV8: 5
  8X 2,4-D CIPV4: 7.5
  8X 2,4-D CIPV8: 10
  16X 2,4-D CIPV4: 10
  16X 2,4-D CIPV8: 22.5
Transgenic maize plants; CTP A, 0.16 lb ai/acre at V4, V8, LSD (0.05) = 1.45
  2X Quizalofop-P CIPV4: 0
Transgenic maize plants; CTP A, 0.16 lb ai/acre at V4, V8, LSD (0.05) = 2.2
  2X Quizalofop-P CIPV8: 2.125
Transgenic maize plants; CTP A, 2 lb ae/acre at V4, V8, LSD (0.05) = 0.95
  2X 2,4-D CIPV4: 0
Transgenic maize plants; CTP A, 2 lb ae/acre at V4, V8, LSD (0.05) = 1.6
  2X 2,4-D CIPV8: 2.5
Transgenic maize plants; [3]
  2X Quizalofop-P CIPV4: 0
  2X Quizalofop-P CIPV8: 1.75
Transgenic maize plants; CTP B, 2 lb ae/acre at V4, V8
  2X 2,4-D CIPV4: 0
  2X 2,4-D CIPV8: 1.25
Transgenic maize plants; [4]
  2X Quizalofop-P CIPV4: 0
  2X Quizalofop-P CIPV8: 1.75
Transgenic maize plants; CTP C, 2 lb ae/acre at V4, V8
  2X 2,4-D CIPV4: 1.25
  2X 2,4-D CIPV8: 1.25
Transgenic maize plants; [5]
  2X Quizalofop-P CIPV4: 0
  2X Quizalofop-P CIPV8: 1.25
Transgenic maize plants; no CTP, 2 lb ae/acre at V4, V8
  2X 2,4-D CIPV4: 0
  2X 2,4-D CIPV8: 1.25
[1]; CTP No, 2,4-D rate 0.5X
  Events with 20-50% injury: 10
  Events with injury >50%: 0
[1]; CTP No, 2,4-D rate 0.5X, about 2 weeks after application
  Events with <20% injury: 120
[1]; CTP No, 2,4-D rate 2X
  Events with 20-50% injury: 30
  Events with <20% injury: 6
  Events with injury >50%: 0
[1]; CTP Yes, 2,4-D rate 2X
  Events with 20-50% injury: 35
  Events with <20% injury: 101
  Events with injury >50%: 0
[1]; CTP Yes, 2,4-D rate 4X
  Events with 20-50% injury: 6
  Events with <20% injury: 5
  Events with injury >50%: 0
[2]; CTP A
  Relative Expression: 7.80
[2]; CTP B
  Relative Expression: 5.95
[2]; CTP C
  Relative Expression: 3.82
[2]; no CTP
  Relative Expression: 4.31
